The values that follow come from patent US20220348631A1.

What all share (assay): cell-based or functional assay
In test [1] the target is PD-L1 on LoVo / LoVo.OKT3.GFP cells (UniProt Q9NZQ7).
For test [2], the target named is carcinoembryonic antigen (CEA) on LoVo, LS174T or H508 tumor cells (UniProt P06731).
For test [3], the target named is Human folate receptor alpha (FolR) on cells (human) (UniProt P15328).

Several values for one entry are separate records, joined by “and”; a condition that tells them apart may be missing. Equal entries are not always repeated. A value given as a limit tells only on which side of the number the result lay.

Sequence of UniProt P06731 (P06731 35-702 limits assumed): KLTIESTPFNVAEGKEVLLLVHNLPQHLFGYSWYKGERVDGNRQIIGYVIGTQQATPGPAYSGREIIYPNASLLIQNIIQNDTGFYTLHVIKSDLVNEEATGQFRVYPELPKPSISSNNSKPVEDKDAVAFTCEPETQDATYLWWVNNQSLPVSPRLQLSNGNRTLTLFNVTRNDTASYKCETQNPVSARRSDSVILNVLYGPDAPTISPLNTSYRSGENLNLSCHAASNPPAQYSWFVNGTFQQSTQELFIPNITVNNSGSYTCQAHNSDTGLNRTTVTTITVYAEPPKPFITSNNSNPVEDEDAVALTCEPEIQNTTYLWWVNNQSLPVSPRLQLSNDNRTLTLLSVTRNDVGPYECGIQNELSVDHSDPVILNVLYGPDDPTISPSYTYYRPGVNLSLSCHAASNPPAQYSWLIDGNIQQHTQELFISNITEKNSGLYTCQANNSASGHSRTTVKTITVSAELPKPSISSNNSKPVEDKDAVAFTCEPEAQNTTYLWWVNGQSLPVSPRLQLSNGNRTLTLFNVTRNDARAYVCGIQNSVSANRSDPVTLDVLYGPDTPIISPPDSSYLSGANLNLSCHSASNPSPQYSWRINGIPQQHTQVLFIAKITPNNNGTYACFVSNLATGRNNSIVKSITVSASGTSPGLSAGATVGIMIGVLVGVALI
Sequence of UniProt P15328 (P15328 25-234): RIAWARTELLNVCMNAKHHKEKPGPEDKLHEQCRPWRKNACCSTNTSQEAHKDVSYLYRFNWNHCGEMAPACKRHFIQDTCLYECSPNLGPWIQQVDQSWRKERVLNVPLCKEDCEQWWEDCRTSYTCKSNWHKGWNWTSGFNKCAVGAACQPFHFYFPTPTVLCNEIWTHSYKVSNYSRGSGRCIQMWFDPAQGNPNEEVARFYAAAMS
Sequence of UniProt Q9NZQ7 (Q9NZQ7 19-290 limits assumed): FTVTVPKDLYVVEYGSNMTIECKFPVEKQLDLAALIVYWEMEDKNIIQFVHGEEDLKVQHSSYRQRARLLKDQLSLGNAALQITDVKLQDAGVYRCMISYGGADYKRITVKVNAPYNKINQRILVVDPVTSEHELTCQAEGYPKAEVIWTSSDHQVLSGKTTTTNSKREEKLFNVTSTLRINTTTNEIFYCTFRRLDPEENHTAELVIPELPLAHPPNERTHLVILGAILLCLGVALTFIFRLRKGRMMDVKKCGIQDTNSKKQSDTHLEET

Regarding “CTP188 PD1_PD1_sCD28TM_CD28_CD40 (dimeric) (receptor)”, the IL-2 secretion (ELISA), 24 h coculture with LoVo-OKT3 in test [1] is < 1000 pg/mL.
“CTP189 PD1_PD1_sCD28TM_CD28_CD40 (monomeric) (receptor)”: the IL-2 secretion (ELISA), 24 h coculture with LoVo-OKT3 in test [1] was < 1000 pg/mL.
Take “CTP194 OSM_MFE23_spCD28_CD28_CD40 (receptor)”: in test [2], the IFNγ (ELISA) after 24 h with LoVo-OKT3 was > 30 ng/mL; the IFNγ (ELISA), coculture with LoVo-OKT3 came out at 1000 pg/mL; the IL-2 (ELISA) after 24 h with LoVo-OKT3 turned out to be 4000 pg/mL; the IL-2 (ELISA), coculture with LoVo-OKT3 was 4000 pg/mL. Further, in test [2], the IL-2 secretion (ELISA), 24 h coculture with LoVo-OKT3 is 4000 pg/mL; the IL-2 secretion (ELISA), coculture with LoVo-OKT3 stood at 29 ng/mL; the T-cell expansion over 18 days with LoVo-OKT3 and IL-2 is > 60 fold; the fold expansion after two rounds of stimulation with LoVo-OKT3 is 10 fold. In addition, in test [2], the fold expansion on serial stimulation with LoVo-OKT3 worked out at 12 fold; the fold expansion with LoVo-OKT3, after restimulation (day 14-15) was > 10 fold; the fold expansion with LoVo-OKT3, first time point (day 6-8) was found to be 4 fold.
On to “CTP195 OSM_MFE23_spCD28_CD28_CD40 (SVQE-AVQA) (receptor)”, for which, in test [2], the IFNγ (ELISA) after 24 h with LoVo-OKT3 is > 30 ng/mL and the IL-2 (ELISA) after 24 h with LoVo-OKT3 was found to be 4000 pg/mL.
Consider “CTP196 OSM_MFE23_spCD28_CD28_CD40 (PVQET-AVAEA) (receptor)”, for which, in test [2], the IFNγ (ELISA) after 24 h with LoVo-OKT3 is 10 ng/mL.
Consider “CTP197 OSM_MFE23_spCD28_CD28_CD40 (PQEINF-AQAINF) (receptor)”, for which, in test [2], the IFNγ (ELISA) after 24 h with LoVo-OKT3 was > 30 ng/mL.
With “CTP198 OSM_MFE23_spCD28_CD28_CD40 (P227A) (receptor)”, in test [2], the IFNγ (ELISA) after 24 h with LoVo-OKT3 is > 30 ng/mL and the IL-2 (ELISA) after 24 h with LoVo-OKT3 was 4000 pg/mL.
As to “CTP200 OSM_MFE23_spCD28_CD28_CD40_CD40_CD40 (receptor)”, in test [2], the IFNγ (ELISA) after 24 h with LoVo-OKT3 was > 30 ng/mL.
In test [2], “CTP201 OSM_MFE23_spCD28_CD28 (PYAPP-AYAA)_CD40 (receptor)” gave an IFNγ (ELISA), coculture with LoVo-OKT3 of 1000 pg/mL and an IL-2 (ELISA), coculture with LoVo-OKT3 of 2500 pg/mL.
Regarding “CTP202 OSM_MFE23_spCD28_CD28 (YMNM-FMNM)_CD40 (receptor)”, the IL-2 (ELISA), coculture with LoVo-OKT3 in test [2] is 2500 pg/mL.
In test [2], “MFE23 CD28(IEV) truncated CoStAR (receptor)” had an IL-2 secretion (ELISA), coculture with LoVo-OKT3 of 4.6 ng/mL.
Take “MOV19.CD28 CoStAR (from UniProt P10747 19-220) (receptor)”: in test [3], the enhancement of Bcl-XL induction in the presence of OvCAR-OKT3 was found to be 20%; the enhancement of IL-2 induction in the presence of OvCAR-OKT3 worked out at 20%; the enhancement of TNFα production in the presence of OvCAR-OKT3 lay within 20 to 30%; the mean fold expansion of T cells, 21 days with OvCAR-OKT3 is 187 fold.
For “MOV19.CD28.CD40 CoStAR (OSM_MOV19_spCD28_CD28_CD40) (receptor)”, in test [3], the CD137 expression was found to be 50%; the CD137 expression in CoStAR+ TIL, coculture with FolR high expressing tumor digest was 50%; the CD137 expression in CoStAR+ TIL, coculture with FolR low expressing tumor digest is > 20%; the IL-2 production stood at 5%. Further, in test [3], the TNFα production was found to be 15%; the enhancement of Bcl-XL induction in the presence of OvCAR-OKT3 is 35%; the enhancement of IL-2 induction in the presence of OvCAR-OKT3 was 30 to 50%; the enhancement of TNFα production in the presence of OvCAR-OKT3 was 25% and 50%. For the same substance, the mean fold expansion of T cells, 21 days with OvCAR-OKT3 in test [3] turned out to be 1300 fold.
